IntAct's records for PubMed 20551905

B1: SUN domain-containing protein 2 (Homo sapiens), Q9UH99 (parent)
chain: MSRRSQRLTRYSQGDDDGSSSSGGSSVAGSQSTLFKDSPLRTLKRKSSNMKRLSPAPQLGPSSDAHTSYYSESLVHESWFPPRSSLEELHGDANWGEDLRVRRRRGTGGSESSRASGLVGRKATEDFLGSSSGYSSEDDYVGYSDVDQQSSSSRLRSAVSRAGSLLWMVATSPGRLFRLLYWWAGTTWYRLTTAASLLDVFVLTRRFSSLKTFLWFLLPLLLLTCLTYGAWYFYPYGLQTFHPALVSWWAAKDSRRPDEGWEARDSSPHFQAEQRVMSRVHSLERRLEALAAEFSSNWQKEAMRLERLELRQGAPGQGGGGGLSHEDTLALLEGLVSRREAALKEDFRRETAARIQEELSALRAEHQQDSEDLFKKIVRASQESEARIQQLKSEWQSMTQESFQESSVKELRRLEDQLAGLQQELAALALKQSSVAEEVGLLPQQIQAVRDDVESQFPAWISQFLARGGGGRVGLLQREEMQAQLRELESKILTHVAEMQGKSAREAAASLSLTLQKEGVIGVTEEQVHHIVKQALQRYSEDRIGLADYALESGGASVISTRCSETYETKTALLSLFGIPLWYHSQSPRVILQPDVHPGNCWAFQGPQGFAVVRLSARIRPTAVTLEHVPKALSPNSTISSAPKDFAIFGFDEDLQQEGTLLGKFTYDQDGEPIQTFHFQAPTMATYQVVELRILTNWGHPEYTCIYRFRVHGEPAH

Variants of: B1
Settings: with copb_human COPB1, P53618
copb_human COPB1, P53618, sequence (P53618 whole entry): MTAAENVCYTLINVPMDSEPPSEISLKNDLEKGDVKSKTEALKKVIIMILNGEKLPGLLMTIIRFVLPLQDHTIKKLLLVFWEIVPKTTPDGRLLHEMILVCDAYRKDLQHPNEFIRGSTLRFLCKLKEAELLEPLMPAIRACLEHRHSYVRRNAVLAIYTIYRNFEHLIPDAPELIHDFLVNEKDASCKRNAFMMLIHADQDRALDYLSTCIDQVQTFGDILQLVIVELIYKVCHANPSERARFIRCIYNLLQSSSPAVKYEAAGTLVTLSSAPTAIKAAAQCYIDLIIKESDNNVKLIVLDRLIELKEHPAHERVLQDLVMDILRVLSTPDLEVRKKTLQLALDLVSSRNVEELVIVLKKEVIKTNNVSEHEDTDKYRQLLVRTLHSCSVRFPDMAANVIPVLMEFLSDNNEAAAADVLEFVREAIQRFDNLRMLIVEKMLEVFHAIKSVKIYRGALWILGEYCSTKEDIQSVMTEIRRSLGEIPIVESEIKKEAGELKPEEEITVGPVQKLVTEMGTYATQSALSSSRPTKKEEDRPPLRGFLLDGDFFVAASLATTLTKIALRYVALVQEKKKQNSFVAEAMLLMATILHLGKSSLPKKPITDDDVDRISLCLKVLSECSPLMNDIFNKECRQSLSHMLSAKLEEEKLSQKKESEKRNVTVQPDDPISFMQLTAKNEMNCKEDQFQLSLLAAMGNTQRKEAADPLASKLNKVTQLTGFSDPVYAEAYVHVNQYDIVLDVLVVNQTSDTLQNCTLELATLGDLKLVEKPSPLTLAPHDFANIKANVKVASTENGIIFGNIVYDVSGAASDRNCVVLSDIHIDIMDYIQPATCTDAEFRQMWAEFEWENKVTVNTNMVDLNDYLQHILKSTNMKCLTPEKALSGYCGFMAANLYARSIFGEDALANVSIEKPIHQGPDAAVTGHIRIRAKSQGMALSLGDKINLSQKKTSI

Variant | effect of a mutation on the interaction
K44A | disrupting interaction
R45A | disrupting interaction
K46A | disrupting interaction
R41A | disrupting interaction

More lines, now with the values ahead:

effect of a mutation on the interaction | Variant
disrupting interaction | R102A;R103A;R104A;R105A
disrupting interaction | K51A
disrupting interaction | R52A
